Consider 14 molecules from publication PMC7048787, “MCL1 binding to the reverse BH3 motif of P18INK4C couples cell survival to cell proliferation” (Cell Death & Disease, 2020).

One may read the IC50 as the concentration that gives 50% inhibition. High values mean weaker potency, low ones greater potency.

Read-outs that look alike come from different tables or passages of the source. No end group written: not given here.

In assay [1] the test system is WAC2 cells (MCL1 overexpressed). Briefly: PI DNA content flow cytometry, cell cycle population of MCL1-overexpressing WAC2 cells treated with BH3 mimetics. The class given is cell-based, human. To be noted: PI staining, N = 3, Fig. 6a; for effect on MCL1 overexpression induced decrease in G1 population: WAC2, MCL1 plasmid, then BH3 mimetic for 18 h, final DMSO 0.5%. (In general: Flow cytometry measures light scatter and fluorescence of single cells or particles in a stream.)

In assay [2] the target is T1, His6-MCL1 (human MCL1 residues 163-326) (human, UniProt Q07820 163-326).
T1 construct: Named His6-MCL1 in the FPA; called rMCL1 in the pull-downs; also called His-MCL1; recombinant MCL1; source: E. coli BL21(DE3), purified (nickel column, gel filtration); not shown: His6, N-terminal, kept
Briefly: fluorescence polarisation; competition FPA: 100 nM His6-MCL1 with variable unlabeled P18 protein or peptides for 10 min at RT, then 10 nM FITC-AHX-BAK for 1 h; 1x PBS pH 7.4, 100 uL, 96-well plates. (In fluorescence polarisation assays a small probe gives low polarisation when free and higher when bound to something large.)
Target sequence in this assay (Q07820 163-326): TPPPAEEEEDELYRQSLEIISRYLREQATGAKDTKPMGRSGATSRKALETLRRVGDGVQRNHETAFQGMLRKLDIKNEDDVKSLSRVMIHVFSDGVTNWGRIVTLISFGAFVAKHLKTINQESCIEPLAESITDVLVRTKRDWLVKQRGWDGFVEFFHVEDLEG

In the next assay the test system is recombinant MCL1 (rMCL1). The experiment in a line: In vitro pulldown of recombinant MCL1 by recombinant P18/P16 constructs. To be noted: for pull-down of recombinant MCL1: Western blot of in vitro pulldown, recombinant proteins (IP), rMCL1 (IB), Fig. 2b. It counts as binding, human. The text has this:
Human MCL1 [Uniprot: Q07820] (residues 163–326), human P18 [Uniprot: P42773] (residues 1–168), A1–4 (P18 residues 1–140), A4–5 (P18 residues 106–168), P16 [Uniprot: P42771] (residues 1–156), and AC (P16 residues 1–113 and P18 residues 106–168) were sequence-optimized for bacterial expression and cloned into the restriction sites of NdeI and HindIII in a pET28a vector (EMD Millipore) to incorporate a N-terminal hexa-histidine (His6) tag and transformed into BL21(DE3) E. Coli (New England Bio Labs). Cultures were grown under kanamycin selection in Luria broth to a 600 nm optical density of 0.6 and expression was induced by addition of 1 mM isopropyl β-D-1-thiogalactopyranoside (Thermo Fisher). Cultures were harvested 3–4 h after induction by centrifugation at 4700 × g. Resulting bacterial pellets were stored at −80 °C. His6-MCL1 bacterial pellets were re-suspended (10 mL/wet g of pellet) in Buffer A (1 × PBS, pH 6.8) with the addition of 1× lysozyme (0.25 mg/mL) (Thermo Fisher) and 1 protease inhibitor tablet (Pierce #88266), sonicated, and cleared at 14,000 × g. Resulting lysate was purified on NGC FPLC (Bio-Rad Laboratories) using a 1 mL HiTrap HP nickel column (GE Healthcare) equilibrated with Buffer A. Protein was eluted with a 2 mM–1000 mM imidazole gradient. His-MCL1 containing fractions, as identified by denaturing polyacrylamide gel electrophoresis, were further purified by gel filtration in Buffer B (1× PBS, pH 6.8) on a HiPrep 16/60 Sephacryl S-100 column (GE Healthcare). Resulting protein identity was confirmed by matrix-assisted laser desorption/ionization (MALDI) mass spectrometry.
Fig. 2 MCL1 binds specifically to P18 through C-terminal rBH3. a Western blot of endogenous coIP of MCL1 (IP) with P18 (IB), BAX (IB), and P18 (IB) in WAC2. b Western blot of in vitro pulldown of recombinant proteins (IP), ANK1–4, ANK4–5, P18, p16, and chimera, with recombinant MCL1 (rMCL1) (IB). Cartoon of the p16, P18, and chimera proteins are shown below the blot. rBH3-containing helix is highlighted in yellow (Residues: 150–161). c Western blot of in vitro pulldown of recombinant P18 (IP) with rMCL1 (IB) with and without MCL1 inhibitor S63845.
P18 is a member of the INK4 protein family [P16INK4A (P16, CDKN2A), P15INK4B (P15, CDKN2B), P18INK4C (P18, CDKN2C), and P19INK4D (P19, CDKN2D)] that regulate G1/S cell cycle progression with all INK4 proteins retaining homologous CDK4/6 inhibitory function. INK4 family proteins have homologous structures containing either four or five ankyrin (ANK) repeats, a helix-turn-helix structural unit known to mediate protein-protein interactions[15],[17]. […] The rBH3 in P18 resides in its fifth ankyrin repeat (residues 141–168). […] Based on prior stability studies of ankyrin repeats within INK4 family proteins[18],[19], we designed two truncations of P18 (Supplementary Table S1). The first, P18-ANK1–4 (ANK1–4), removes the rBH3-containing fifth ankyrin repeat. The second, P18-ANK4–5 (ANK4–5), retains the rBH3 domain as well as ankyrin repeat 4 to facilitate folding.
For orientation: In western blotting, separated proteins are transferred to a membrane and probed.

Assay [3] addresses T1, His6-MCL1 (human MCL1 residues 163-326). The experiment in a line: pull-down; in vitro pulldown of recombinant P18, P16, truncated and chimeric proteins (IP) with recombinant MCL1 (IB). To be noted: both partners purified.

Take `CC1(C)CCC(CN2CCN(c3ccc(C(=O)NS(=O)(=O)c4ccc(NCC5CCOCC5)c([N+](=O)[O-])c4)c(Oc4cnc5[nH]ccc5c4)c3)CC2)=C(c2ccc(Cl)cc2)C1` [ABT-199]: in assay [1] (WAC2, MCL1 overexpressed, BH3 mimetic 18 h), the “impact on sub-G1 cell population” value is listed as “more significant impact on the sub-G1 cell population”. Also, the “effect on MCL1 overexpression induced decrease in G1 population” value in assay [1] is “no impact on the change in G1 population”.

For the molecule “P18 12-mer peptide (P18 rBH3) (from UniProt P42773 150-161)”, the IC50 in assay [2] worked out at 2500 nM.

For `Cc1c(-c2c(-c3ccc(F)o3)sc3ncnc(O[C@H](Cc4ccccc4OCc4ccnn4CC(F)(F)F)C(=O)O)c23)ccc(OCCN2CCN(C)CC2)c1Cl` [S63845], in the assay with recombinant MCL1 (rMCL1) (recombinant P18 (IP) with rMCL1 (IB) with and without MCL1 inhibitor, Fig. 2c), the “disruption of P18 pulldown of MCL1” value was “suppressed the ability of P18 to pull-down MCL1”. For the same molecule, in assay [1], the “effect on MCL1 overexpression induced decrease in G1 population” value is on record as “rescued the MCL1 overexpression induced decrease in G1 population back to control levels”.

B1: P18 protein (human P18INK4C residues 1-168), recombinant (natural protein, UniProt P42773 1-168, looked up)
chain: MAEPWGNELASAAARGDLEQLTSLLQNNVNVNAQNGFGRTALQVMKLGNPEIARRLLLRGANPDLKDRTGFAVIHDAARAGFLDTLQTLLEFQADVNIEDNEGNLPLHLAAKEGHLRVVEFLVKHTASNVGHRNHKGDTACDLARLYGRNEVVSLMQANGAGGATNLQ
notes: Human P18 (P18INK4C, CDKN2C), residues 1-168, called full-length P18 protein in the results; The purification of this protein is not described; only that of His6-MCL1 is; also called CDKN2C; full-length P18 protein; source: E. coli BL21(DE3), recombinant
In assay [2] (both partners purified), B1 had an IC50 of 113 nM.

B2: P18^INK4C: human P18 [Uniprot: P42773] (residues 1–168), His6-tagged recombinant protein (protein)
chain: B1 chain
modifications: left off: His6, N-terminal, state not stated
notes: human P18 [Uniprot: P42773]; (residues 1–168), His6-tagged recombinant protein
Consider B2, for which, in the assay with recombinant MCL1 (rMCL1), the “pull-down of recombinant MCL1” value is “successfully pulled down MCL1”.

In the case of CDLARLYGRNEVVSLAQANGA (not fully specified (C-terminus)) [P18 rBH3 peptide with alanine substitution of M156], the IC50 in assay [2] (both partners purified) is more than 30000 nM.

B3: Chimeric protein of P16-ANK1-3 and P18-ANK4-5 (P16 residues 1-113 and P18 residues 106-168) (other, human, UniProt P42771 1-113, looked up)
chain: MEPAAGSSMEPSADWLATAAARGRVEEVRALLEAGALPNAPNSYGRRPIQVMMMGSARVAELLLLHGAEPNCADPATLTRPVHDAAREGFLDTLVVLHRAGARLDVRDAWGRLPLHLAAKEGHLRVVEFLVKHTASNVGHRNHKGDTACDLARLYGRNEVVSLMQANGAGGATNLQ
notes: Human P18 (P18INK4C), residues 106-168 (ankyrin repeats 4-5 with the rBH3 motif); also called AC; chimera; source: E. coli BL21(DE3), recombinant
B3: the binding result in assay [3] is reported as “binds”.

B4: chimera: chimeric protein consisting of P16-ANK1–3 and P18-ANK4–5 (P16 residues 1–113 and P18 residues 106–168) (protein)
chain: B3 chain
modifications: left off: His6, N-terminal, state not stated
Turning to B4, the “pull-down of recombinant MCL1” value in the assay with recombinant MCL1 (rMCL1) was “gained the ability to pulldown recombinant MCL1”.

B5: P18 21-mer peptide (P18 residues 141-161) (peptide, UniProt P42773 141-161, looked up)
peptide: CDLARLYGRNEVVSLMQANGA
notes: Human P18 (P18INK4C), residues 141-161, holding the rBH3 motif (150-161); Made on rink amide MBHA resin, so the C-terminus is probably an amide (surmised); also called P18x peptides; source: synthetic peptide
As to B5, the IC50 in assay [2] (both partners purified) was determined as 778 nM.

B6: P16: recombinant P16 [Uniprot: P42771] (residues 1–156), negative control (protein)
chain: MEPAAGSSMEPSADWLATAAARGRVEEVRALLEAGALPNAPNSYGRRPIQVMMMGSARVAELLLLHGAEPNCADPATLTRPVHDAAREGFLDTLVVLHRAGARLDVRDAWGRLPVDLAEELGHRDVARYLRAAAGGTRGSNHARIDAAEGPSDIPD
modifications: left off: His6, N-terminal, state not stated
notes: recombinant P16 [Uniprot: P42771]; (residues 1–156), negative control
In the case of B6, in the assay with recombinant MCL1 (rMCL1), the “pull-down of recombinant MCL1” value is recorded as “showed no interaction”.

B7: ANK1–4: P18 residues 1–140, truncation that removes the rBH3-containing fifth ankyrin repeat (protein)
chain: MAEPWGNELASAAARGDLEQLTSLLQNNVNVNAQNGFGRTALQVMKLGNPEIARRLLLRGANPDLKDRTGFAVIHDAARAGFLDTLQTLLEFQADVNIEDNEGNLPLHLAAKEGHLRVVEFLVKHTASNVGHRNHKGDTA
modifications: left off: His6, N-terminal, state not stated
notes: P18 residues 1–140, truncation that removes the rBH3-containing fifth ankyrin repeat
With B7, the “pull-down of recombinant MCL1” value in the assay on recombinant MCL1 (rMCL1) is on record as “showed no interaction”.

For the molecule CDLARLYGRNAVVSLMQANGA (not fully specified (C-terminus)) [P18 rBH3 peptide with alanine substitution of E151], the IC50 in assay [2] (both partners purified) is more than 30000 nM.

B8: P18-ANK4-5 (P18 residues 106-168) (domain or fragment, human, UniProt P42773 106-168, looked up)
chain: PLHLAAKEGHLRVVEFLVKHTASNVGHRNHKGDTACDLARLYGRNEVVSLMQANGAGGATNLQ
notes: Human P18 (P18INK4C), residues 106-168: ankyrin repeats 4 and 5, with the rBH3 motif; also called A4-5; source: E. coli BL21(DE3), recombinant
Consider B8, for which the binding result in assay [3] is on record as “binds”.

B9: ANK4–5: P18 residues 106–168, retains the rBH3 domain and ankyrin repeat 4 (protein)
chain: B8 chain
modifications: left off: His6, N-terminal, state not stated
As to B9, in the assay on recombinant MCL1 (rMCL1), the “pull-down of recombinant MCL1” value was “successfully pulled down MCL1”.
